What was measured:
[1] = biological target: T1, Urotensin-2 receptor N-terminal peptide, MALTPESPSSFPGLAATGSSVPEPPGGPNATLNSSWASPTEPSSLEDLVATGTI (biotin label); assay: modified sandwich ELISA, grade by the table's key
T1 construct: also called Urotensin IIR; GPCR2 (Urotensin II)
T1 peptide: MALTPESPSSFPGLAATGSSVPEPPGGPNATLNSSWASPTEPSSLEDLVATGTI
Procedure: (§1) Binder proteins were coated on the surface of a high binding capacity 96 well plate by incubating 100 μL of protein at 5 μg/mL in a coating solution (10 mM Tris pH 8.8, 50 mM NaCl), overnight at 4 C. The next morning, the coating solution was aspirated out and wells were washed once with 300 μL ELISA wash buffer (1×PBS, 0.05% Tween-20) and solution was aspirated out. The wells were blocked with 200 μL of a blocking buffer (1×PBS, 0.05% Tween-20, 3% BSA) at room temperature for 1 hour. After one hour, the blocking solution was aspirated out and 100 μL of biotinylated polypeptide in a binding buffer (1×PBS, 0.05% Tween-20, 0.5% BSA) at various concentrations was added to the appropriate well and incubated for 20 minutes. Peptide solution was aspirated out after 20 minutes and wells were washed 5 times with 300 μL of ELISA wash buffer. To detect the biotinylated peptide, 100 μL of streptavidin-HRP (50 ng/ml) was added to each well and incubated for 1 hour. The wells were subsequently washed 5 times with 300 μL of ELISA wash buffer. 100 μL of QuantaBlu Fluorogenic Peroxidase substrate solution was added to each well, incubated for 30 minutes and reaction stopped by adding 100 μL of stop solution. Fluorescent signal from each well was measured using a Biotek Cytation5 plate reader by exciting the fluorophore at […] and measuring emission at 420 nm. Fluorescent signals were plotted as a function of polypeptide concentration.

[2] = biological target: T2, TNFRSF13B disordered region peptide, LPPELRRQRSGEVENNSDNSGRYQ (biotin label); assay: modified sandwich ELISA, grade by the table's key
T2 construct: also called TNFRSF13B Peptide
T2 peptide: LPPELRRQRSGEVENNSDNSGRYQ
Procedure: as §1

[3] = biological target: T3, 25 amino acid epitope of CLIP (CD74); assay: BLI (Octet RED), biotinylated peptide on streptavidin sensor
T3 construct: also called CLIP Peptide
Procedure: Streptavidin sensor tips for the BLI instrument were equilibrated in an equilibration buffer (1×PBS, 0.05% Tween 20, 0.5% BSA) for 5 minutes. Biotinylated polypeptide in the equilibration buffer at 0.5 μM was loaded on the streptavidin sensor over 60 s. After substrate loading, the sensor tips were washed in the equilibrating buffer for 5 minutes to block non-specific binding and to obtain a baseline reading. Peptide loaded and blocked tips were then introduced into wells containing polypeptides in the equilibrating buffer at varying concentrations. The binding and dissociation data are fit using the OCTET software to obtain kₒₙ, koff and consequently KD, the binding affinity.

[4] = biological target: T4, CD74 disordered region peptide (CLIP), PPKPVSKMRMATPLLMQALPMGALP (biotin label); assay: ELISA: scaffold coated on plate, biotinylated peptide titrated, streptavidin-HRP fluorescence
T4 construct: also called CD74 Peptide
T4 peptide: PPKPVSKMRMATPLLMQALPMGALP
Procedure: as §1

[5] = biological target: T5, CYSLTR2 short linear epitope peptide, SISVSEMEPNGTFSNNNSRNC (N-terminal biotin); assay: as above
T5 peptide: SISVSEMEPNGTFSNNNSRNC
Procedure: as §1

[6] = biological target: T6, CYSLTR2 N-terminal disordered region peptide, MERKFMSLQPSISVSEMEPNGTFSNNNSRNCTIENFKREFFP (biotin label); assay: modified sandwich ELISA, fluorescence grade by the table's key
T6 construct: also called CysLT2; CysLT2r
T6 peptide: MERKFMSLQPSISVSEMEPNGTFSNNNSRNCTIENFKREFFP
Procedure: as §1

[7] = biological target: T4, CD74 disordered region peptide (CLIP), …; assay: as above
Procedure: as §1

[8] = biological target: T7, CRACM disordered region polypeptide; assay: as above
T7 construct: domain: disordered region
Procedure: as §1

[9] = biological target: T6, CYSLTR2 N-terminal disordered region …; assay: ELISA, fluorescence at 10000 nM peptide divided by the no-scaffold control
Procedure: as §1

[10] = biological target: T8, CD40LG short linear epitope peptide, NKEETKKENSFEMQKGDQNPQIAAH (biotin label); assay: ELISA: scaffold coated on plate, biotinylated peptide titrated, streptavidin-HRP fluorescence
T8 construct: also called CD40LG Peptide
T8 peptide: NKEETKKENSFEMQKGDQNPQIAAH
Procedure: as §1

[11] = biological target: T9, KAAG1 disordered region peptide, PGAAAAHLPRWPPPQLAASRREA (biotin label); assay: as above
T9 construct: also called KAAG1 Peptide
T9 peptide: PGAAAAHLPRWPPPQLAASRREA
Procedure: as §1

[12] = biological target: T10, GMERKFMSLQPSISVSEMEPNGTFSNNNSRNCTIENFKREFFP (biotinylated, position not given); assay: as above
T10 construct: also called CYSLTR2 (longer peptide of the disordered region)
T10 peptide: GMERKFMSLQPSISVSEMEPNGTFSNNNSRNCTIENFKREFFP
Procedure: as §1

[13] = biological target: T2, TNFRSF13B disordered region peptide, …; assay: as above
Procedure: as §1

[14] = biological target: T11, KCNA6 short linear epitope peptide, QQQEQQPASGGGGQNGQQAMS (biotin label); assay: as above
T11 construct: also called KCNA6 Peptide
T11 peptide: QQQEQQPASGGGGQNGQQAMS
Procedure: as §1

MERKFMSLQPSISVSEMEPNG = biological target: T12, MERKFMSLQPSISVSEMEPNG (N-terminal biotin); assay: ELISA: scaffold coated on plate, N-terminally biotinylated peptide titrated, streptavidin-HRP fluorescence
T12 construct: also called CYSLTR2 N-terminal 21-mer peptide
T12 peptide: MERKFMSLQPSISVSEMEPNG
Procedure: as §1

[15] = biological target: T5, CYSLTR2 short linear epitope peptide, …; assay: as above
Procedure: as §1

[16] = biological target: T6, CYSLTR2 N-terminal disordered region …; assay: ELISA: scaffold coated on plate, biotinylated peptide titrated, streptavidin-HRP fluorescence
Procedure: as §1

[17] = biological target: T9, KAAG1 disordered region peptide, …; assay: modified sandwich ELISA, fluorescence grade by the table's key
Procedure: as §1

[18] = biological target: T6, CYSLTR2 N-terminal disordered region …; assay: modified sandwich ELISA (FIGS. 30A, 30B)
Procedure: as §1, with “Fluorescent signals were plotted as a function of polypeptide concentration.” left out

B1: engineered scaffold protein S005 (designed binder)
chain: MIKEEHVIIQAEFYLNPDQSGEFMFDFDGDEIFHVDMAKKETVWRLEEFGRFASFEAQGALANIAVDKANLEIMTKRSNYTPMGDTRPRFLWQLKFECHFFNGTERVRLLERCIYNQEESVRFDSDVGEYRAVTELGRPDAEYWNSQKDLLEQRRAAVDTYCRHNYGVGESFTVQGGSHHHHHHLE
notes: Derived from MHC II; also called scaffold v1.1; v1.1
- binding result [1]: no binding (tested: <5000 (fluorescence, key))
- binding result [2]: no binding (tested: <5000 (fluorescence, key))
- Kd [3]: 840 nM
- EC50 (read off the curve) [4]: ~300 nM
- binding result [5]: binds
- fluorescent signal [6]: 100000 to 250000 fluorescentsignal
- fluorescent signal [7]: > 400000 fluorescentsignal
- fluorescent signal [8]: 100000 to 250000 fluorescentsignal
- Fold Change (Relative Binding) [9]: 18.5 x
- Relative Binding (signal over the no-scaffold control) [9]: 18.5 x

B2: engineered scaffold protein S177 (designed binder)
chain: MIKEEHVINQAEYYLNPDQSGEFKFDFDGDEIFHVDMAKKETVWRLEEFGRFASFEAQGALAHIAVDKANLEIMTKRSNYTPMGDTRPRFLWQLKYECHFFNGTERVRLNERCIYNQEESVRFDSDVGEYRAVTELGRPDAEQWNSQKDHLEQRRAAVDTKCRHNYGVGESFTVQGGSHHHHHHLE
- binding result [10]: no binding (tested: 10000 nM)
- binding result [11]: no binding (tested: 10000 nM)
- binding result [12]: binds
- binding result [13]: no binding (tested: 10000 nM)
- binding result [14]: no binding (tested: 10000 nM)
- binding result (MERKFMSLQPSISVSEMEPNG): no binding (tested: 10000 nM)
- binding result [15]: binds
- fluorescent signal [6]: 100000 to 250000 fluorescentsignal

B3: engineered scaffold protein S194 (designed binder)
chain: MGIKEEHVINQAEYYLNPDQSGEFKFDFDGDEIFHVDMAKKETVWRLEEFGRFASFEAQGALAHIAVDKANLEIMTKRSNYTPMGGGSKARMATGALAQAGGSGGSGDTRPRFLWQLKYECHFFNGTERVRLNERCIYNQEESVRFDSDVGEYRAVTELGRPDAEQWNSQKDHLEQRRAAVDTKCRHNYGVGESFTVQGGSHHHHHH
- binding result [10]: no binding (tested: 10000 nM)
- binding result [11]: no binding (tested: 10000 nM)
- binding result [12]: binds
- binding result [5]: binds
- binding result [13]: no binding (tested: 10000 nM)
- binding result [14]: no binding (tested: 10000 nM)

B4: engineered scaffold protein S164 (designed binder)
chain: GIKEEHSIRQNEKYNNPDQSGNFEFHLDGQPIFRVDMQKKRTKWQLEEFGRFASFEAQGALANIAVFKINLEIMTKRSNQSEAGSHSWQLNFTCEFHEGTESVRLSERSYYNQENFVSFNSDVGEYRATTELGRPMAEYVNSQKDTLEQRRAAVDTYCRHNYGVGEYFTVQRR
- binding result [16]: no binding (tested: 10000 nM)
- binding result [11]: no binding (tested: 10000 nM)
- fluorescent signal [7]: > 400000 fluorescentsignal

B5: engineered scaffold protein S090 (designed binder)
chain: IKEEHSIRQNEMYLNPDQSGLFEFHLDGQPIFRVDMQKKRTKWQLEEFGRFASFEAQGALANIAVDKANLEIMTKRSNQSEAGSHSWQLIFVCEFHEGTESVRLSERCYYNQELSVSFNSDVGEYRAVTELGRPDAEYWNSQKDLLEQRRAAVDTYCRHNYGVGESFTVQRRGGSHHHHHHLE
notes: also called scaffold v1.2; v1.2
- binding result [2]: no binding (tested: <5000 (fluorescence, key))
- EC50 (read off the curve) [4]: ~500 nM
- binding result (MERKFMSLQPSISVSEMEPNG): no binding (tested: 10000 nM)
- binding result [15]: binds
- fluorescent signal [6]: 250000 to 400000 fluorescentsignal
- fluorescent signal [17]: 250000 to 400000 fluorescentsignal
- fluorescent signal [7]: > 400000 fluorescentsignal
- fold higher affinity compared to a non-specific protein binder [18]: > 65 fold
- Fold Change (Relative Binding) [9]: 37.2 x
- Relative Binding (signal over the no-scaffold control) [9]: 37.2 x

B6: engineered scaffold protein S055 (designed binder)
chain: GSHSMRYNYTSVSRPGRGEPRFLSEGHVDDTQFVRFDSDAASPREEPRAPWIEQEGPEYWDRNTQIYKAQAQTDRESLRNLRGYYNQSEAGSHTLQSIYGCDVGPDGRLLRGHDQYYYDGKDYISLNEDLRSWTAADTAAQITQRKWEAAREAEQRRAYLEGECVEWLRRYLENGKDKLERADGGSHHHHHHLE
- fluorescent signal [17]: 50000 to 100000 fluorescentsignal
- fluorescent signal [7]: > 400000 fluorescentsignal

B7: engineered scaffold protein S056 (designed binder)
chain: GSHSMRYNYTSVSRPGRGEPRFLSEGHVDGQPFVRFDSDAASPREEPRAPWIEQEGPEYWDRNTQIYKAQAQTDRESLRNLRGYYNQSEAGLHSLNSIYVCDVGPDGRLLRGHDHYYYDGELYISLNEDLRSWTAADTAAQITQRKWEAAREAEQRRAYLEGECVEWLRRYLENGKDKLERADGGSHHHHHHLE
- fluorescent signal [17]: 50000 to 100000 fluorescentsignal
- fluorescent signal [7]: > 400000 fluorescentsignal

B8: engineered scaffold protein S171 (designed binder)
chain: GDTRPRFLWQLKWECHFYNGTERVRLNERCNYNQEESVRFDSDVGEYRAVTELGRPDAEFSNSQKDNLEQRRAAVDTLCRHNYGVGESFTVQRRSGGGIKEEHVINQAEYYLNPDQSGEFKFDFDGDEIFHVDMAKKETVWRLEEFGRFAIIEAYGALANIAVDKANLEIMTKQSNYT
- binding result [16]: no binding (tested: 10000 nM)
- binding result [11]: no binding (tested: 10000 nM)
- fluorescent signal [7]: > 400000 fluorescentsignal

From patent US20250387450A1 (AIKIUM, published 2025)
